The results in this text go back to a protein production outcome set (Wang et al. 2014).

The nature of the data set: label from the status in PepcDB records.

As to “DAAPAPAAEAAPAAAPAPAAAAELKEVHVPDIGGDEVEVTEIMVAIGDSIEEEQSLITVEGDKASMEVPAPFAGTLKEIKVAAGDKVSTGSLIMVFETAGSGAPAAPAAVEAPAAAAPAASAA”, the protein production result was “failed”.

For the sequence “DASRQAELVREGITSSSDLVEQSLNKIEKGNSQLNAVTYLRADRALEEAKQINDHGQPFFGVPILLKGLGQKLAGEPATASSRLLKKLVADQTDFYVQALQKAGFIVIGQTNAPEFGFKNITDPTLYGPTRNPWNLDYYSGGSSGGAASSMAADFVSIASGSDGGGSIRIPASFSSLIGLKPTRGRIPVGPTDWRTWQGASISFALTRSVRDNARLLDAIQTVQPAAAFTTPLYEAGFFAGIDQLDRNLTIAYTTKSPVGTEVRDEAKTAVENAVDFLRSEGFQVEEQENPLDGKEIMQLYYLMNAGETAAMFADIEEGIGRPTNIQDMELMSWVIYQAGKLVTAGEYSQALSKWDISSYQMNQFHENYDLYLTPTTAYPAPKLTDELISPELLGRMKEVTSLTSSFERQQLIYDAFLPSLALTPFTQQANLTGEPAISLPTHLTAAGLPLGIQFQAAKGREIDLLRIARLFEKHNLFHFLHKTIF”, the protein production result is “failed”.

With “DCLLPIVAAPMAGGPTTVALAQAVSGVGGFPFLAGGYKSVEALATEIAVLRASGGNFGVNLFVPSPDMVDAEAFRIYAAKLQSEALPYGLRLDPLPVMGDDDGWPDKLALLLNDPVPVVSFTFGLPAVRDIAALRCAGSRVLASVTLPAEAQAAMEAGVDGLVVQGPDAGGHSATYDPGRPFTPLKTVSLVRRVCAVSSLPVIAAGGVDGPVMVRALLQAGAAAVAIGTLLLRTKESGATQVHKDALANPAYTETVITHAFTGRPARTLRNGFVNRYHASAPLGYPAIHHLTRPLRQAAASAGDADVLHLWAGTGYRQAMDGSAVDVIQ”, the protein production result was “failed”.

Turning to “DETYYTVDLEQKLEEKFGLEEAIVVATHDMSEEEALNFLAKEAAYTLSKRIAKVNTLGISWGKTIRKFANEFPYIPHKDLTIIPLIGGMGSSDIDLHSNQICYDLKKKMQCHSKYLYAPALVEDTEMKADLSKNKYINEVLEEGKTVDMAIVGVSSPYNQSTMEEIGYITPEDIEELRYKDVVGDINSRFFTANGEEANTQINTHVIGLSLEELKKIPTVVALANGLQKKDALVSALNAGLIDVIVITDRMAEYILQKND”, the protein production entry was “failed”.

As for “DEWTDEQFKQLISFKTQPGGWGVTDVHVRYANSAKYTYNLPVLVSGSTDNTDDRLVSFSLRDDTLDILNFEKFGNRPELYFRELPQKYYSFPKELTIPAGQSHALLPIEFSLDGLDDSQKWALPLKVCEDANGTYAVNPRKYYRTAVLRPILFNEFSGRFSGSSLLGTMAGESDIKFSSTEIKLNVVTDSIVFFYAGQRTEDYEDRINYKVFLQFTGDKVDSKKDLYKMKIWAENEKLKFNSYSTPTYKVSSEMDATKTYLKHTYIVISDIDFDFVDYTSVPNYEIEYNMKGGLSVSRDLDTRKPDEDQGSDSKWW”, the protein production entry is “not failed”.

Regarding “DHHAWHRLLDRALSEQHFQLYFQPVVAARDTHLVLHYKVLSRLLDEQGQTIPAGRFLPWLERFGWTSRLDLLMLEQVLRQMASHEDCLALNLSAATLADPHALNRVFEILRQHSDLGPRLTLEIGEEQLPEQAMLEQLTRRLRELGFSLSLQRFGGRFSMIGNLARLGLAYLKIDGSYIRDIDQESDKRLFIEAIQRAAHSIDLPLIAERVETEGELQVIREMGLYGVQGQLFGEPAPWG”, the protein production result is on record as “not failed”.

Consider “DHSLAIIEFDLSSRIIEVNQNYLDYFGYQRDEVIGQYHLMFCHPGYANSDEYQKIKTSLLAGQSLEGRFERIHKDGSRVWLAAIYQPVSGPDGSVTRIVKIAKNIT”, for which the protein production entry is on record as “failed”.

“DIRPSKLLTWCQQQTEGYQHVNVTDLTTSWRSGLALCAIIHRFRPELINFDSLNEDDAVENNQLAFDVAEREFGIPPVTTGKEMASAQEPDKLSMVMYLSKFYELFRGTPLRPV”: the protein production result is “not failed”.
